Columns and labels:
ANG1-C4BP (human) = ANG1-C4BP (human) (UniProt Q15389); experiment: non-reducing SDS-PAGE
C4BP-ANG1 (human) [1] = target: C4BP-ANG1 (human) (UniProt P04003); experiment: negative-stain electron microscopy
C4BP-ANG1 (human) [2] = target: C4BP-ANG1 (human) (UniProt P04003); experiment: non-reducing SDS-PAGE

Substance	stoichiometry N (ANG1-C4BP (human))	stoichiometry N (C4BP-ANG1 (human) [1])	stoichiometry N (C4BP-ANG1 (human) [2])
ANG1-C4BP (from UniProt Q15389-1 281-498; P04003 541-597) (ligand)	7	–	–
C4BP-ANG1 (from UniProt P04003 541-597; Q15389-1 281-498) (ligand)	–	7	7
